Patent publication US20020168363A1, “Integrin/adhesion antagonists” (Amgen Inc., priority 2000, published 2002)

Tests used:
[1] = system: HT1080 cells; experiment: Effect on the growth of HT1080 cells; assay type: cell-based, human
Protocol: Laminin activity assay: Apoptosis of HT-1080 human fibrosarcoma cells. HT-1080 cells from a human fibrosarcoma are cultured in DMEM supplemented with 10% fetal bovine serum, 100 μg/ml streptomycin and 100 units/ml penicillin. The culture is started at a density of 5×10^4 cells per plate. The Fc-peptides (Fc-YIGSR, Fc-(YIGSR)2, YIGSR-Fc, or (YIGSR)2-Fc)) at various concentrations are added to each plate, and after 16 hours the cells are harvested for evaluation of apoptosis with crystal violet solution at 560 nm absorbance. The DNA fragmentation analysis is also carried out to assess the degree of apoptosis in a 1.5% agarose gel and visualized by ethidium bromide staining.
Two additional laminin peptides, (YIGSR)3 and (YIGSR)5 from Table 6 herein, were fused to human IgG1. Those fusion peptides were designated as laminin-3 ((YIGSR)3-Fc) and laminin-5 ((YIGSR)5-Fc). The purified peptide-Fc fusions were examined for their effect on the growth of HT1080 cells as described in Example 1. […] A 50-fold enhancement was seen after it was fused to human IgG1.

[2] = biological target: T1, human αvβ3 (Homo sapiens, UniProt P05106+P06756); experiment: Solid phase binding assay (Vitronectin-Ru, integrin coated paramagnetic beads); conditions: FIGS. 4A and 4B
T1 construct: tissue Chemicon International Inc. (alternative source, catalogue number not given); host or cells: placenta
Protocol: (§1) Ruthenylation of Vitronectin and Fibrinogen. Purified human vitronectin or purified human fibrinogen (Calbiochem) was dialyzed into 50 mM borate, 100 mM NaCl pH 8.0. A stock solution of ruthenium (II) tris bipyridine N-hydroxysuccinimide ester (Origen TAG® Ester, Igen Inc. Gaithersburg, Md.) was freshly prepared by adding 50 μL DMSO to 150 μg of the Origen TAG-NHS ester. Fifty microliters of the Origen TAG-NHS ester was added to one fifth molar ratio of the matrix protein. After one hour incubation at […], the reaction was quench by the addition of 50 μL of 2 M glycine. Unincorporated ruthenium and excess glycine were removed by dialysis into PBS, 0.05% NaN3. Protein concentrations were determined using Micro-BCA (Pierce, Rockford, Ill.). Origen TAG incorporation was assessed at 455 nm (e=13,700 M^−1 cm^−1). Vitronectin-Ru and Fibrinogen-Ru were stored at −70° C. until needed. […]
(§2) Solid Phase Binding Assay. […] The assay mixture was incubated at 25° C. for two hours with agitation and subsequently read on an Origen Analyzer® (Igen Inc. Gaithersburg, Md.) Non-specific binding was determined using 1 μM Vitronectin, 1 μM Fibrinogen or 5 mM EDTA. The data was prepared using a four-parameter fit by the Levenburg Marquardt algorithm (XLfit® ID Business Solutions.) Ki values were calculated using the equation of Cheng and Prusoff (1973) Biochem. Pharmacology 22: 3099-3108.

[3] = biological target: T2, GPIIb/IIIa (Homo sapiens, UniProt P05106+P08514); experiment: Inhibition of ruthenium-labeled human fibrinogen (fibrinogen-ru) binding to GPIIb/IIIa, solid phase binding assay; conditions: FIGS. 5A and 5B
T2 construct: The washed platelets were lysed in, 20 mM Tris-HCl pH 7.4, 140 mM NaCl, 2 mM CaCl2, 1 mM pefabloc, 3% octylglucoside; from tissue; host or cells: outdated platelets
Protocol: as §1, §2

T1 sequence (P06756 31-889 limits assumed): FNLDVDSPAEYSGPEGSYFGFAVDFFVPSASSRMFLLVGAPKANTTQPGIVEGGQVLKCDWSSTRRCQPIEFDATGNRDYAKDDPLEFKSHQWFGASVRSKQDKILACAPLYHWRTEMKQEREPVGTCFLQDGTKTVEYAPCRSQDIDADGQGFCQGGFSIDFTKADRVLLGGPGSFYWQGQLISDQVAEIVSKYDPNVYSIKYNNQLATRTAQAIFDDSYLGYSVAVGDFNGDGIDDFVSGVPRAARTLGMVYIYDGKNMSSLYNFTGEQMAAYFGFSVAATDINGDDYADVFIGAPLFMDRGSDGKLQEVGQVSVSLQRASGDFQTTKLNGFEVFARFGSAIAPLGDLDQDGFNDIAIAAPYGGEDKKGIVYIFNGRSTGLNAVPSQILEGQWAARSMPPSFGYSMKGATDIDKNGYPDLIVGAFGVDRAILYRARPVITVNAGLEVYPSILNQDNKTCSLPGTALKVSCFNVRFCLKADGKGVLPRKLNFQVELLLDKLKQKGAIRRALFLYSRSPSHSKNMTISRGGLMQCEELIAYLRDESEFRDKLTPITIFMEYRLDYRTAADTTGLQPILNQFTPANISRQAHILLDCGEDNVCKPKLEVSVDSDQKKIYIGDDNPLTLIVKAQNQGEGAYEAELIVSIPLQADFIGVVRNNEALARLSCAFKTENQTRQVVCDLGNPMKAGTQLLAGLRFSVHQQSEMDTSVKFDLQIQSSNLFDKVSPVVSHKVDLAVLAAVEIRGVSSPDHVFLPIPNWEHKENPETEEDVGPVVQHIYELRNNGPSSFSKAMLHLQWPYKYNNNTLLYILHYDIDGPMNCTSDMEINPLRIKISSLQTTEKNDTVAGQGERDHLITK
T1 sequence (P06756 891-1048 partner limits assumed): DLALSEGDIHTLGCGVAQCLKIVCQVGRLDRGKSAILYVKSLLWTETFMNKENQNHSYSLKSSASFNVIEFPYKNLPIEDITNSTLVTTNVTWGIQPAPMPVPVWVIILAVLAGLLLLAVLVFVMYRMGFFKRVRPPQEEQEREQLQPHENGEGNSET
T1 sequence (P05106 27-788): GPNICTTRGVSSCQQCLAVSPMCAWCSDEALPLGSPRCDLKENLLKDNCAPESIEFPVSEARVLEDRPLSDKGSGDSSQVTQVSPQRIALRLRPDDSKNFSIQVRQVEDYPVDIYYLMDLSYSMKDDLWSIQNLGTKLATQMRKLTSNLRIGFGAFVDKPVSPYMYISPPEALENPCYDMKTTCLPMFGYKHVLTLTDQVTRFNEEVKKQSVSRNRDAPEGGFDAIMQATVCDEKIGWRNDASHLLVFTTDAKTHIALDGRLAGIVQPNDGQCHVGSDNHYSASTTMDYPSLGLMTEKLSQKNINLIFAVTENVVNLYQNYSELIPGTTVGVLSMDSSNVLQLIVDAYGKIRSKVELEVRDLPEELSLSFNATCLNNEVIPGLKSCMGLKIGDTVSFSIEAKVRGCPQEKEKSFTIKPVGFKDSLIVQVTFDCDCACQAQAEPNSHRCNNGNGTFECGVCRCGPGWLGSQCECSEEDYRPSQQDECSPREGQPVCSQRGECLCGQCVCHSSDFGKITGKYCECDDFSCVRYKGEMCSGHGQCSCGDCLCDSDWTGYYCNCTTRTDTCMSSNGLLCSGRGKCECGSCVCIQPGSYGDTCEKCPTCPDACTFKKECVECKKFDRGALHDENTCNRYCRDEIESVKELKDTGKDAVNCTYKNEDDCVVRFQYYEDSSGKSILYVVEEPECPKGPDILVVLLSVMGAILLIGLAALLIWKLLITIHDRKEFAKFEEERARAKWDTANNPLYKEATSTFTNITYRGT

| Substance | IC100 [1] [µM] | binding to human αvβ3 [2] | inhibition of fibrinogen-ru binding to GPIIb/IIIa [3] |
| --- | --- | --- | --- |
| YIGSRYIGSRYIGSR [(YIGSR)3] | 2.9 | – | – |
| Echistatin-Fc: echistatin fused via a 5 glycine linker to the C-terminus of the Fc portion of human IgG1 (SEQ ID NO: 109) | – | binds with high affinity | inhibition |
